Our source for the ADCC of human PBMCs against Daudi cells, dose response of anti-CD38 Ab (0.1 nM to 50 nM); lowest antibody concentration with increased killing values is patent US20190048055A1.

For the experiment, the target named is CD38 molecules expressed on Daudi human B-cell lymphoma cells (human) (UniProt P28907). Nature of the experiment: cell-based or functional assay.

Substance anti-CD38 Ab (daratumumab) (antibody) came in with an ADCC of human PBMCs against Daudi cells, dose response of anti-CD38 Ab (0.1 nM to 50 nM); lowest antibody concentration with increased killing of 0.1 nM.
